assay: label from the status in PepcDB records

Sequence	protein production
MAVYNPKPEFFRQAVLSVLGQTMPVLELVLVNDGGSDEFKSVLPDDDRIRVFTKPNEGVAATRNFAIKQCRGEYIAFLDQDDYWYSDKLAEQMAMISVKGEACMVISPVDIVDNQGVPIIKQNRKKVTNRYFRKIAHPDIRFPLADGNFIYSSTPLIHRRVFECVGLFDSFTQPHDDWDMYLRIALAGISVHCYRERALSVWRMHDSNESQKRMAMMLSKCEVEWKILQGGVPEPVAKIMHSNLALDQIVMDNLWYNEREFARFRETVRRDLPGLMRCAVNSGRHDRYVTGYRKRAASAIIKSARRYLLSLFSRQR	failed
MAWFLLVIAGIEEIIAAIAMKYIDGTRKKWPIIVMTVGFGLSFYCLSQAMIVLPAGVAYAVWTGIGSIGVSAVGLIWFKERFQLSQVISLCLILAGVIGLRLTSSS	failed
MAWGVCDINGSFAGQNPVTTRLSVRRCQWRCVDFAHSKCLRTQNYRVQMRSCRTGVYGSPRGDANEAVPPPHQPKGPLRTMPLETLINAGFVDYLILLIYFVFVLGIGLAARHQVSDSLDFFLSGRSLPGWVTGLAFVSANLGAVEIMGMSANGAQIGIPTVHYFWIGAIPAMVFLGIVMMPFYYGSGVRSVPEFMLKRFGPAAHLVNAISFALAQLLIAGINLYLLGTIVHALLGWPLWVALIVAAMIVLAYISLGGLSAAIYNEVLQFFVIVASLLPLVIIGLHRVGGWSGLKAKITAAAEAHPDVVTPAAQQLHSWPGQALSGFGSPVMSVIGITLGLGFVLSFGYWTTNFVEVQRAMASDSLSSARKTPTIGAFPKMLVPFLTVLPGMLAAVLVPEIARMKAGEKVAGGASGSFVQYNDSVLFLIRNLLPTGLTGVAITGLLAAFMAGMAANISAFNTVFSVDIWQHYVIKDKPDGYYVKVGRIATVIATVVAIGTAFMASGFSNIMDYLQTLFGFFNAPLFATFILGMFWKRSTPHAGWSGLVVGTLSAVTVWVMSLAGVFTLPGQGTAFLAATVGFVADIIVSIVVSLFTEPKPAAELVRLVYSETPKEHLVDPLEKDLPWYRRTVPLGMTVLAITVVLNIIF	failed
MAYGDKDEVLSVDVGSNAKVMKHLDGDDAMKKAQVRGRSGQEFSKETTKMMMKKTTKKETNVEEEDDLVAYTADYWKPRHHPPKNN	failed
MAYGTYRGLFAPEVAGPLAKLLVLLLVGYGLYQNRHLKSLYLVLLGLLLNALVIFANGGHMPVSPTALHRAGIGEFADLLRDKGDAVHALLDEKTRLPFLGDVIPLPPLRKVVSPGDLFILLGIVGVVVEGALKGGVRLRRRALALRLLLYLAFVLALLALRG	failed
MAYLAPISSSLSIFKNPQLSRFQFSSSSPNPLFLRPRIQILSMTMNKSPSLVVVAATTAAEKQKKRYPGESKGFVEEMRFVAMRLHTKDQAKEGEKETKSIEERPVAKWEPTVEGYLRFLVDSKLVYDTLELIIQDSNFPTYAEFKNTGLERAEKLSTDLEWFKEQGYEIPEPTAPGKTYSQYLKELAEKDPQAFICHFYNIYFAHSAGGRMIGRKVAERILDNKELEFYKWDGELSQLLQNVREKLNKVAEEWTREEKNHCLEETEKSFKYSGEILRLILS	failed
MCCPPMTSSSSLSHHASQSGQVRLCPGCELPIDAITVDQAHSAHCPRCGTLLYRGGSPSLSGDLALAVTCLLLFIPSHFFSYIDIRLFGVMIPATLPQGVFALWDEGYIALALLVLFCSSIAPLVLCLSVVSAHLALRFRYFQTLRYSLLFIHHLKVWVMIDVFLVSVAVSCFKLKDYSDIFIGPGLLGLVLLQLFTVLLLSRISTRRYWETWQAETEYDLPVKQVHCHNCHLSQPENGHCVRCQHKLYHRKPNSIERTWAYVLAATVAIFPANLIPISILITNGQRLEDTIFSGVASLVKNGMWGIALIIFVASIVVPVIKIIGLAYLLMAIKLKRHVHQRQRMMIYRGIKWIGKWSVMDLFVISIMLTLVDRGQILDFTPGYGAVAFGMVVVLTMLAAESLDPRLLWDEPDSTRTQQ	failed
MCDCLSIILLVKMKKIYLKFVDFWDGFDTISNFIVDALSIQYEVVLSNEPDYLFYSCFGTSHLEYDCIKIMFIGENIVPDFNVCDYAIGFNYIDFGDRYLRLPLYAIYDGFSNLQNKKIDVNKALDRKFCSIVVSNNKWADPIRETFFKLLSSYKKVDSGGRAWNNIGGPVDNKLDFISQYKFNIAFENSRVLGYTTEKIMEPMQVNSIPVYWGNPLVGKDFNVDSFVNAHDFDSLERLVEYIIELDSSKDKYLEMLEKPWLLDKTYLDWKQLLLNFINNIMMKSYKDAKYLVNYGHAGKYRNEQRFWGRCERKFKLQRIIEYYSQLFDRKLEHHHHHH	failed
MCDFISHNKQLFDELDIFIDSLATKEGALIQVLHEAQGIFGYLPKEVQLHVARKLGVAPAKVYGVVTFYSYFTTEPVGKYKISVCLGTVCFVKGADKILSAFEKQLGIKVGETTSDFKFSLEGLRCLGACGLAPVVTVNGKVYGKVKPDQVSEILDTYRELELNC	failed
MCDQTKHSKCCPAKGNQCCPPQQNQCCQSKGNQCCPPKQNQCCQPKGSQCCPPKHNHCCQPKPPCCIQARCCGLETKPEVSPLNMESEPNSPQTQDKGCQTQQQPHSPQNESRPSK	failed
MCEIFIRANQRSYSVQARSLRLHGVATSVRLEQLFWDVLEEIAARDGMRVTQLIERLYDELVQYRGEAANFTSFLRVCCLRYQVLQAEGRIPADATVPIRSLDAQAVLRGLPANLYDSRPLG	not failed
MCGLAGWVDYTRKLDDEFPAIFAMTDTLALRGPDAEGIWKHRNALLGHRRLAVIDLSGGVQPMSYRFPTGQEVTLVYTGEVYNHDALRERLRRAGHEFRTRSDTEVVLHAYLQWGERCCEYLTGMFAFAVFDGRDGHLLLVRDRLGIKPLYYARHREGLLFGSEIKSILAHPEFAARLDAVGLVDLLTLSRGTSQTPFREVQELLPGHLLSWRPNSQAKLRRYWEVRRQEHADDLQSTVQRTRELVTRALGAQLHADVPVCSLLSGGLDSTALTGIAQRIAKAEHGGDINSFSVDFVGQAEQFRSDDLRPDQDQPFALLAAQYIGSRHRTVLIDNAELVCERAREEVFRAKDVPFTFGDMDTSLHLMFGEIRRHSTVAISGEGADELFGGYGWFRDPQAVAAARFPWASRVRLPAGFIDAGFNRRCDLLQYQQASYDDGLRQVEHLAGDSPEERRMREFSHLHLKRWMVLLLERKDRLSMCNGLEVRVPYTDHELVEYVYNVPWSIKSRDGEEKWLLKRACADYVPEAVLKRRKSPYPTSANLGYERFLRGSVRRLLEDAVNPVFGIVSREFLAAELEHPEGYFNTQVSRHNLETALALEGWLRLYGLS	failed
MCGTRSSAQTSKTSLCALLLSAAMSLVLAAPASAAADCIAGSKAAPAELITSCSAIIDQAANSSSDRAAALLVRADANARTSGGLTQALRDIDRAIALDGKNAKAWRLRGDLLREAGGDLNRAAADLSKAIELDPQDAESYELRGVVYTSQRRLDRALADYDQAIKLKPGDAQAWSDRGVTYYLGGDNEKAIRDLSEALRLDPNRPRTYTNRGAAYKKLGQLDKSVADAAEAIRLDPKVPEYYDNRGLSLAAMGDYDKAIADYDQALRLAPKPNFFTNRGDSYQFKGEFGAALSDYESALKLDPNFAQTYNNRAVLYKKMGERRKALADYETALKLDPGNDNAANGRRTMIAEIAKFGDEPRRPLAANSGNGPSFDCATAKREVEKVICADPELGVLDRQIAETYERVLKSANRRSAGDLRRTQRDFLATRNSSFGRPGYDLRKVMQERLQRLNAMEG	failed
MCIAIPGKMTAIVDENTATIDMGGICRDVNMALMGGAEESMIGKHFLVHVGYAISEISEEESEETMRLLKIMAGLEEIDSFENESQ	failed
MCLAIPSVVIDIFEEDGEKYALAEYKGVKQKAKLALIEGVEIGDYVLIHTGYALEKMSEDEAKLSLDAWEELFDVLDEM	failed
MCNDTATPQLEELVTTVANQLMTVDAATSAEVSQRVLAYLVEQLGVDVSFLRHNDRDRRATRLVAEWPPRLNIPDPDPLRLIYFADADPVFALCEHAKEPLVFRPEPATEDYQRLIEEARGVPVTSAAAVPLVSGEITTGLLGFIKFGDRKWHEAELNALMTIATLFAQVQARVAAEARLRYLADHDDLTGLHNRRALLQHLDQRLAPGQPGPVAALFLDLDRLKAINDYLGHAAGDQFIHVFAQRIGDALVGESLIARLGGDEFVLIPASPMSADAAQPLAERLRDQLKDHVAIGGEVLTRTVSIGVASGTPGQHTPSDLLRRADQAALAAKHAGGDSVAIFTADMSVSGELRNDIELHLRRGIESDALRLVYLPEVDLRTGDIVGTEALVRWQHPTRGLLAPGCFIPVAESINLAGELDRWVLRRACNEFSEWQSAGLGHDALLRINVSAGQLVTGGFVDFVADTIGQHGLDASSVCLEITENVVVQDLHTARATLARLKEVGVHIAIDDFGTGYSAISLLQTLPIDTLKIDKTFVRQLGTNTSDLVIVRGIMTLAEGFQLDVVAEGVETEAAARILLDQRCYRAQGFLFSRPVPGEAMRHMLSARRLPPTCIPATDPALS	failed
MCRKRYKKQNLGVSKNMLEGHENKVSGVYEKNRSAGYEKEILKPKNVWEEFFADKRSGGHRSSAEEFLAMEAKEKLFHLDGGKILLDFGCGAGELLVYYAQEYEKTIGVDFSPSMLEEASKRIRERNCKNTTLILADDKIVWDKLDSSFDRITAAGVFQYLTYQKIDDFIFNASKHLNEGGKIVLFDMLDPRLYPLWKMGLFSQDKSCRKILSKAVCGVKNSISASLKRRPRDILGYSHYPNKIKKIANKNGFEMICVQSMYYEYKYHAIIFRS	failed
MCSIGVTALCSPAKFHHRREQSLIFTPTHLRNPNGFQFRWRKSRPFAPRLAQPDNFAPPLPLIRSSTSLLSSKDFVQMLARKAAILLVGSFVFLGFCSSKPALALPTATVVSQAELEDEKMFEKLLENEPENMEAMKAVVYKKMRRGKNEDAVKYVEKLMKLEPHEVEWKLLEALCYETMGELSKAKRLYKDILKEQPLLIRALHGLAMVMHKTHDTSVFDMLIEAMEVARQGNRVTEERNIQVLIGQMHIVEGQFEEGLKIFQQMVNDNPRDFRPYLCQGIVYSLMDKKEEAAQQFEIYWSLVPGEFPQKGFLDDVALAAQAKSRERLQNTFKAKFTQGR	failed
MCTKNETKPLPSFIEERLNFHIQDLIKSNENQKHLVLGKRPSENAVVMQSNDYLSLSHNELIQKAHRDAISERDDNVVMSAIFLQDDQSKPAFEHQLATFVGMESCLLSQSGWAANIGLLQTICAPNLPVYIDFFAHMSLWEGARTAGAQIHPFMHNNMNHLRKQIQRHGAGIIVVDSVYSTIGTIAPLRAIYEMAKEFDCGLVVDESHSLGTHGPEGSGLLQKLGLTQMVDFVTVSLAKTFAYRAGAILGPNKLAQSLPFVAYPAIFSSTVLPQEVVRLEKTLEVIKAADDKRECLFKRAKELAIGLKRIGFNIRSESQIIALECGSERNTERVRDFLEERDVFGAVFCRPATGRNKNIIRFSVNADMTAQQVDHVLSACQEAFDHPDLEFV	not failed
MCTPAADTRRGSPALASTARRGLLPARRNGPSARRGEALRSSTGRFVCWCRRRTASVDPSGFMPASFSIAGRLVDLHARAIRPATVHVQDGVIARIEPAETVPERHLLPGFIDAHVHVESAMLPPSEFARAAVRHGTVGTVSDPHEIANVLGVEGVEYMIADGRPVPFHFAFGAPSCVPATPFETSGAELGPDAVSALLDRDDVPYLSEMMDYPGAIDGAPNVLAKIRAAQVRDKPVDGHAPGLRGDDVAQYAAAGIETDHECVSIEEAREKLEAGMKIAIREGSAAKNFDELIPLMDEAPDRLMFCSDDRHPDALAEGHIDTLVRRALNRGYDRFDVLRAACVHPVEHYGLDVGLLREGDPADFIVVDDLDALNVQETYVEGALVAEEGETHIEHVASDVVNRFDAEPVAPADFRVPAGGDRLRVITAVDNQLGTGEEVVTTPTDDGYAVADPDRDVLKLAVVNRYTEESTPAVAFVRGFGLDGGALASSVAHDSHNVVAVGARDDALARAVNAVVRAEGGISAAAEGTQVLPLPIAGLMSDEPYDVVARRYTRLTDYVRAELGSAMDAPFMTLSFLSLLVIPQLKLSDRGLFDGAAFEFVDRFVD	failed
